In article doi:10.1101/2023.07.07.548133 one finds stoichiometry N data, which are given here for 1 substance.

The assay has as its target cytosolic PAS domain (PASc) of the bacterial citrate sensor histidine kinase (CitA). As to the kind of experiment: MINFLUX fluorescence nanoscopy.

For orientation: stoichiometry N means a count of units in the complex or per binding partner. For the substance “cytosolic PAS domain (PASc) of the bacterial citrate sensor histidine kinase (CitA) (domain or fragment)”, the stoichiometry N came to 2.
